Assay results: the supplement of paper PMC10567573

B1: ZNF263 (parent)
chain: CSECGESFSRSSRLMSHQRTHTG

Variants of: B1
Assay: protein stability index of a GFP-peptide fusion (GPS, HEK-293T) (PSI 1-6); higher = more stable
Settings: c terminus: native
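Also: lentivirally expressed fusions sorted by FACS into six bins by GFP to DsRed ratio, PSI derived from sequencing read proportions per bin multiplied by bin number.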

Protein stability index of substitutions, site by site:
L14: Y 2.98; V 1.45; A 2.39; G 1.62; Q 1.32; M 1.87; N 2.12; F 2.43; W 1.96; P 1.67; E 2.35; T 2.05; H 1.55; D 2.74
G5: F 3.91; V 1.03; I 2.23; Y 2.33; T 2.3; C 2.33; Q 2.03; H 1.64; K 1.29; P 1.89; W 1.88; A 2.77; R 1.4; S 1.69; L 1.92; D 1.79; E 1.41; N 2.2
S12: D 4.42; K 1.99; M 2.58; W 2.13; H 2.66; N 2.52; Q 2.38; T 1.72; F 1.86; R 2.23; A 2.13; C 3.76; G 1.91; V 1.86; I 2.4; L 2.01; P 2.06; Y 2.65
H17: S 1.51; L 1.38; I 3.2; A 1.44; F 2.73; D 2.52; E 2.38; N 1.57; K 2.76; Y 1.76; T 1.46; Q 2.04; C 2.42; W 3.17; P 1.11
R19: V 2.73; M 3.43; W 3.17; P 2.44; A 4.1; Q 3.63; E 3.78; C 5; K 5.13; D 4.39; H 4.51; N 4.11; F 3.55; I 2.58; L 3.49; Y 3.63; T 3.76; S 3.46
S2: F 1.91; H 2.35; E 3.24; T 2.54; Q 2.84; L 2.67; D 2.99; M 3.38; A 2.4; R 2.92; P 4.06; C 1.79; Y 2.22; W 2.21; V 3.85; N 2.62; K 2.51; G 2.86; I 2.77
C1: G 2.36; Q 2.46; P 3.14; V 1.59; E 3.15; D 1.84; N 2.31; S 2.14; R 2.32; I 2.1; T 2.06; A 2.23; M 2.22; F 1.49; K 2.05; H 2.11; L 1.75; W 1.56; Y 1.9
R10: G 2.95; Q 3.85; K 2.68; N 4.99; Y 2.83; E 5.27; S 5.28; W 1.15; V 3.48; L 3.71; I 2.95; A 2.98; D 5.6; T 5.16; C 4.11; F 2.51; M 3.62; P 2; H 4.29
C4: L 1.81; P 1.51; Q 1.53; T 1.56; G 1.82; M 1.85; K 1.42; F 1.24; V 2.12; H 1.4; I 1.74; N 2.11; R 1.15; D 2.31; A 1.56; E 1.8
R13: Q 4.66; K 4.19; D 5.63; G 3.3; P 2.43; H 4.79; I 3.96; L 4.84; E 5.6; N 4.26; M 4.03; S 4.84; W 2.56; F 3.48; V 4.14; T 4.34; C 4.52; A 4.91; Y 3.6
E6: K 3.25; D 1.89; I 2.15; P 1.92; V 2.97; H 2.05; C 2.52; T 1.76; N 1.73; L 3.22; S 2.94; Q 2.96; A 3.66; Y 1.56; R 3.9; W 2.02; F 1.61; M 3.42
S7: A 2.94; T 3.69; Q 3.41; E 3.51; N 2.64; C 2.67; Y 3.8; R 2.33; I 3.88; M 3.59; V 4.13; P 2.63; H 2.58; D 1.84; W 3.75; K 2.72; L 3.6; G 2.35
E3: R 2.12; M 2.26; H 2.56; P 1.33; V 4.21; I 4.09; G 1.71; N 2.58; Q 3.33; S 1.87; F 3.31; A 2.37; C 1.8; K 2.68; T 3.74; Y 3.54; L 2.9; W 3.35; D 2.67
F8: H 2.13; M 2.21; N 1.92; R 2.2; P 1.91; E 3.32; A 1.35; G 2.58; I 1.21; C 2; T 2.04; W 3.15; S 2.11; K 2.14; L 1.37; Q 2.16; D 2.63; Y 2.39
S11: P 4.22; V 4.71; R 2.31; T 2.54; C 3.34; K 3.55; G 3.13; I 3.98; F 3.14; Y 3.67; A 4.04; M 4.29; N 2.31; H 3.47; D 2.1
S16: D 4.8; C 3.1; T 3.34; I 2.88; E 4.89; H 2.64; M 4.14; F 2.28; W 1.83; Y 1.93; L 3.83; V 3.49; A 3.8; N 2.14; R 3.69
Q18: P 2.22; C 2.5; A 2.48; L 3.02; F 2.38; G 2.49; H 2.57; M 4.32; Y 2.39; D 2.58; W 2.77; S 2.13; T 2.24; N 2.16; I 3.21; E 2.76; R 1.89; K 2.22
S9: G 2.23; P 1.74; I 2.4; M 2.68; E 3.67; D 4.09; K 2.23; V 2.42; C 2.35; H 2.99; R 2.37; Q 1.94; A 2.54; F 2.58; T 2.98; Y 3.1; L 2.03; W 2.84; N 2.67
M15: N 2.22; R 3.03; A 3.54; E 3.72; Q 3.51; P 1.72; T 2.54; W 1.85; K 3.97; C 2.75; I 3.54; H 3.24; F 3.2; Y 2.83; G 1.98; D 3.48; L 3.13; S 2.19; V 2.54
